Measurements reported in patent publication US12077566B2, “Mutants of recombinant immunoregulatory protein of Ganoderma lucidum and applications thereof” (priority 2017, dated 2024).
Entries after “also recorded” stand apart in the source; their conditions may differ.

What was measured:
[1] = test system: tumor; assay: Early animal pharmacodynamic experiments of PEG-modified rLZ-8; format: in vivo; settings: compared with rLZ-8
[2] = test system: human breast cancer MCF7 cells; assay: Orthotopic transplantation tumor model of human breast cancer MCF7 cells; format: in vivo, BALB/c nude mice; settings: after administration for 28 days
Method: One day before the experiment, 0.5 mg of 17ß estradiol sustained release tablet is embedded below the neck skin of the BALB/c nude mice.

[3] = test system: human lung cancer A549 cells; assay: Orthotopic transplantation tumor model of human lung cancer A549 cells; settings: for Mice survival rate after experiment / Mice tumor weight after experiment / Mice weight after experiment / Tumor inhibitory effect (in words): after administration for 28 days; for Effect on survival time (in words): compared with the rLZ-8;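 as to all read-outs here: test animals were NOG mice aged 6-8 weeks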
Method: The human lung cancer A549 cell strain is selected. The NOG Mice of 6-8 weeks old are selected.
The DMEM containing 10% fetal bovine serum is selected for the human lung cancer A549 cells, and then is placed in the CO2 constant-temperature incubator at 37° C. for culturing. The A549 cells at the logarithmic phase are digested by pancreatin and thereafter washed with serum-free DMEM; the living cell concentration is adjusted to 1×10^8 cells per milliliter; 20 μL cell suspension is taken and inoculated at the lung of the NOG mice; two weeks later, the orthotopic transplantation tumor model of A549 lung cancer cells is constructed in the NOG mice.

[4] = test system: human colon cancer SW480 cells; assay: Transplantation tumor model of human colon cancer SW480 cells; format: in vivo, BALB/c nude mice; settings: after administration for 28 days
Method: The RPMI1640 medium containing 10% fetal bovine serum is selected for the human colon cancer SW480 cells, and then is placed in the CO2 constant-temperature incubator at 37° C. for culturing. The SW480 cells at the logarithmic phase are digested by pancreatin and thereafter washed with serum-free RPMI1640 medium; 2×10^6 cells are inoculated below the back skin of the BALB/c nude mice; after the tumor blocks for observation are formed and have the diameter larger than 0.5 cm, the mice are divided into groups randomly; and the transplantation tumor model of human colon cancer SW480 cells are constructed in the BALB/c nude mice.

[5] = target: EGFR extracellular domain (Homo sapiens, UniProt P00533); assay: Affinity test by surface plasmon resonance (Biacore T200, CM5 chip); format: binding; settings: for Affinity with the EGFR (in words): compared with rLZ-8
Method: The Biacore™ T200 equipment (a Surface Plasmon Resonance from GE Company) is selected. Through the surface plasma resonance technology, the affinity of the rLZ-8 and the mutants thereof to the EGFR extracellular domain is tested. The CM5 chip is adopted to serve as the affinity test chip.
The EGFR extracellular domain (with an amino acid sequence of 25-645) serves as the ligand for coupling; 1 mg EGFR freeze-dried powders are diluted with HEPES buffer solution to a concentration of 400 μg/mL and set aside. Three 1.5 mL EP tubes are prepared; 10 μL ligand are respectively added into the three tubes, then 90 μL 10 mM sodium acetate with different pH values of 4.5, 5.0 and 5.5 are respectively added into the tubes and are mixed completely and uniformly; and a final concentration of the ligand is 40 μg/mL. Moreover, 200 μL 50 mM sodium acetate is added into another 1.5 mL EP tube.
The ligand has a molecular weight of 70 kDa, the analyte (rLZ-8) has a molecular weight of 12.4 kDa. In theory, one rLZ-8 […] can bind with one EGFR, and thus the stoichiometric ratio Sm is equal to 1. Through the following equations, the coupling amount RL of the ligand is calculated.
Through the experimental experience, the optimal reagent coupling amount is set to be 3*RL, and the coupling amount is set to be 1700 RU. The EGFR extracellular domain is successively coupled on the CM5 chip.
In the affinity test, in order to eliminate the influence of different concentrations on the affinity, every of the rLZ-8 and the mutants thereof are tested with eight concentrations, wherein: seven concentrations are gradient concentrations, and the last one is the test reference concentration.

[6] = test system: human liver cancer Hep G2 cells; settings: for Tumor inhibitory effect (in words): after administration for 28 days; for Mice weight after experiment / Effect on survival time of the mice (in words): mouse, in vivo; for Mice tumor weight after experiment / Survival rate of mice after experiment: qd×28 i.v., rLZ-8 and mutants 0.5 mg/kg, sorafenib 50 mg/kg; for Survival rate of mice after experiment: 10 mice per group
Source text: Two weeks later, the model mice are divided into groups randomly, and each group has 10 mice. The administration method is caudal vein injection, once a day, for consecutive 28 days (qd×28, i.v.). […] During the experiment, if the mouse dies, the dead mouse is weighted on the same day, and the tumor tissue is taken out to be weighted. For the living mouse after administration for 28 days, the mouse is killed, and then the tumor tissue is taken out to be weighted. The death time and death number of the mice in each group are recorded in detail; the survival conditions of the mice of the experimental groups and the control groups are analyzed, and the survival rate is calculated, wherein the survival rate is obtained through subtracting the death number of the mice from the total number of the mice, and then dividing the difference by the total number of the mice.

[7] = test system: Hep G2 cytomembrane; assay: In vitro cellular activity: binding with Hep G2 cytomembrane and entering the cell; format: cell-based; settings: 100 μg/mL
[8] = test system: liver cancer, lung cancer, breast cancer and colon cancer; assay: Animal pharmacodynamic experiments of liver, lung, breast and colon cancer (summary statement); format: in vivo, mice; settings: breast and colon cancer models together
[9] = EGFR extracellular domain coupled on CM5 chip, analyte 4-256 nM

B1: mPEG-SPA-rLZ-8: rLZ-8 modified with methoxy polyethylene glycol succinimidyl propionate (conjugate, UniProt P14945 2-111, looked up)
Immunomodulatory protein Ling …: SDTALIFRLAWDVKKLSFDYTPNWGRGNPNNFIDTVTFPKVLTDKAYTYRVAVSGRNLGVKPSYAVESDGSQKVNFLEYNSGYGIADTNTIQVFVVDPDTNNDFIIAQWN
modifications: mPEG-SPA PEGylation
notes: rLZ-8 modified with methoxy polyethylene glycol succinimidyl propionate
For B1, the “Antitumor effect (in words)” value [1] was “decreased”.

B2: rLZ-8 (K16A/S18A/K41A/D45A): alanine mutant of rLZ-8 at K16, S18, K41 and D45 (protein)
chain: MSDTALIFRLAWDVKALAFDYTPNWGRGNPNNFIDTVTFPAVLTAKAYTYRVAVSGRNLGVKPSYAVESDGSQKVNFLEYNSGYGIADTNTIQVFVVDPDTNNDFIIAQWN
B2 was tested, and the “Mice tumor weight after experiment” value [2] was 1.02 ± 0.33 g, the “Tumor inhibitory effect (in words)” value [2] was “nearly no tumor inhibitory effect” and the “Mice survival rate after experiment” value [3] was 10%. The “Mice tumor weight after experiment” value [3] was 1.22 ± 0.83 g, the “Mice weight after experiment” value [3] was 17.6 ± 1.4 g and the “Tumor inhibitory effect (in words)” value [3] was “nearly no tumor inhibitory effect”. For the same molecule, the “Mice tumor weight after experiment” value [4] was 3.12 ± 0.54 g, the “Tumor inhibitory effect (in words)” value [4] was “nearly no tumor inhibitory effect” and the “Dissociation rate constant (koff)” value [5, 9] was 0.00423 s⁻¹. For the same molecule, the Ka [5, 9] was 139 M⁻¹ s⁻¹, the “Affinity with the EGFR (in words)” value [5] was “obviously decreased by 2-3 orders of magnitudes” and the “Affinity with the EGFR (in words)” value ([5]; listed as rLZ-8 (K16A/S18A/K41 A/D45A)) was “obviously decreased affinity”. The “Tumor inhibitory effect (in words)” value [6] was “nearly no tumor inhibitory effect”, the “Mice weight after experiment” value [6] was 17.3 ± 1.5 g and the “Mice tumor weight after experiment” value [6] was 1.62 ± 0.72 g. The “Survival rate of mice after experiment” value [6] was 30%, the “Binding with the Hep G2 cytomembrane and entering the cell (in words)” value [7] was “little binding amount with the Hep G2 cytomembrane and nearly cannot be observed to enter the cell” and the “Tumor inhibitory effect (in words)” value [8] was “nearly no tumor inhibitory effect”.

B3: rLZ-8 (D70K): rLZ-8 mutant after surface potential optimization, D70K (protein)
chain: MSDTALIFRLAWDVKKLSFDYTPNWGRGNPNNFIDTVTFPKVLTDKAYTYRVAVSGRNLGVKPSYAVESKGSQKVNFLEYNSGYGIADTNTIQVFVVDPDTNNDFIIAQWN
B3 was tested, and the “Mice tumor weight after experiment” value [2] was 0.52 ± 0.28 g, the “Tumor inhibitory effect (in words)” value [2] was “obviously increased tumor inhibitory effect” and the “Mice survival rate after experiment” value [3] was 80%. The “Mice tumor weight after experiment” value [3] was 0.36 ± 0.28 g, the “Mice weight after experiment” value [3] was 21.1 ± 1.2 g and the “Tumor inhibitory effect (in words)” value [3] was “obviously increased tumor inhibitory effect”. For the same molecule, the “Effect on survival time (in words)” value [3] was “can obviously lengthen the survival time”, the “Mice tumor weight after experiment” value [4] was 1.22 ± 0.29 g and the “Tumor inhibitory effect (in words)” value [4] was “obviously increased tumor inhibitory effect”. The Ka [5, 9] was 203000 M⁻¹ s⁻¹, the “Tumor inhibitory effect (in words)” value [6] was “obviously increased tumor inhibitory effects” and the “Effect on survival time of the mice (in words)” value [6] was “certain effect on lengthening the survival time”. For the same molecule, the “Mice weight after experiment” value [6] was 20.7 ± 1.7 g, the “Mice tumor weight after experiment” value [6] was 0.35 ± 0.21 g and the “Survival rate of mice after experiment” value [6] was 80%. For the same molecule, the “Tumor inhibitory effect (in words)” value [8] was “obviously increased tumor inhibitory effects”.

B4: rLZ-8 (S18A): alanine mutant of rLZ-8 at S18 (protein)
chain: MSDTALIFRLAWDVKKLAFDYTPNWGRGNPNNFIDTVTFPKVLTDKAYTYRVAVSGRNLGVKPSYAVESDGSQKVNFLEYNSGYGIADTNTIQVFVVDPDTNNDFIIAQWN
With B4 the “Mice tumor weight after experiment” value [2] was 1.04 ± 0.30 g, the “Tumor inhibitory effect (in words)” value [2] was “nearly no tumor inhibitory effect” and the “Mice survival rate after experiment” value [3] was 30%. For the same molecule, the “Mice tumor weight after experiment” value [3] was 1.20 ± 0.70 g, the “Mice weight after experiment” value [3] was 17.8 ± 1.6 g and the “Tumor inhibitory effect (in words)” value [3] was “nearly no tumor inhibitory effect”. The “Mice tumor weight after experiment” value [4] was 3.01 ± 0.39 g, the “Tumor inhibitory effect (in words)” value [4] was “nearly no tumor inhibitory effect” and the Ka [5, 9] was 3720 M⁻¹ s⁻¹. For the same molecule, the “Affinity with the EGFR (in words)” value [5] was “obviously decreased by 2-3 orders of magnitudes; also recorded: obviously decreased affinity”, the “Tumor inhibitory effect (in words)” value [6] was “nearly no tumor inhibitory effect” and the “Mice weight after experiment” value [6] was 17.6 ± 1.4 g. For the same molecule, the “Mice tumor weight after experiment” value [6] was 1.50 ± 0.71 g, the “Survival rate of mice after experiment” value [6] was 30% and the “Tumor inhibitory effect (in words)” value [8] was “nearly no tumor inhibitory effect”.

B5: rLZ-8 (L17K/D70K): rLZ-8 mutant after surface potential optimization, L17K and D70K (protein)
chain: MSDTALIFRLAWDVKKKSFDYTPNWGRGNPNNFIDTVTFPKVLTDKAYTYRVAVSGRNLGVKPSYAVESKGSQKVNFLEYNSGYGIADTNTIQVFVVDPDTNNDFIIAQWN
With B5 the “Mice tumor weight after experiment” value [2] was 0.49 ± 0.26 g, the “Tumor inhibitory effect (in words)” value [2] was “obviously increased tumor inhibitory effect” and the “Mice survival rate after experiment” value [3] was 80%. For the same molecule, the “Mice tumor weight after experiment” value [3] was 0.40 ± 0.26 g, the “Mice weight after experiment” value [3] was 21.2 ± 1.5 g and the “Tumor inhibitory effect (in words)” value [3] was “obviously increased tumor inhibitory effect”. For the same molecule, the “Effect on survival time (in words)” value [3] was “can obviously lengthen the survival time”, the “Mice tumor weight after experiment” value [4] was 1.09 ± 0.33 g and the “Tumor inhibitory effect (in words)” value [4] was “obviously increased tumor inhibitory effect”. The Ka [5, 9] was 215000 M⁻¹ s⁻¹, the “Tumor inhibitory effect (in words)” value [6] was “obviously increased tumor inhibitory effects” and the “Effect on survival time of the mice (in words)” value [6] was “certain effect on lengthening the survival time”. For the same molecule, the “Mice weight after experiment” value [6] was 21.0 ± 1.8 g, the “Mice tumor weight after experiment” value [6] was 0.42 ± 0.23 g and the “Survival rate of mice after experiment” value [6] was 90%. The “Tumor inhibitory effect (in words)” value [8] was “obviously increased tumor inhibitory effects”.
